Results from PMC4478348.

Target: LARP4B (UniProt Q92615 1-738)
Experiment: EMSA

Sequence of LARP4B (Q92615 whole entry): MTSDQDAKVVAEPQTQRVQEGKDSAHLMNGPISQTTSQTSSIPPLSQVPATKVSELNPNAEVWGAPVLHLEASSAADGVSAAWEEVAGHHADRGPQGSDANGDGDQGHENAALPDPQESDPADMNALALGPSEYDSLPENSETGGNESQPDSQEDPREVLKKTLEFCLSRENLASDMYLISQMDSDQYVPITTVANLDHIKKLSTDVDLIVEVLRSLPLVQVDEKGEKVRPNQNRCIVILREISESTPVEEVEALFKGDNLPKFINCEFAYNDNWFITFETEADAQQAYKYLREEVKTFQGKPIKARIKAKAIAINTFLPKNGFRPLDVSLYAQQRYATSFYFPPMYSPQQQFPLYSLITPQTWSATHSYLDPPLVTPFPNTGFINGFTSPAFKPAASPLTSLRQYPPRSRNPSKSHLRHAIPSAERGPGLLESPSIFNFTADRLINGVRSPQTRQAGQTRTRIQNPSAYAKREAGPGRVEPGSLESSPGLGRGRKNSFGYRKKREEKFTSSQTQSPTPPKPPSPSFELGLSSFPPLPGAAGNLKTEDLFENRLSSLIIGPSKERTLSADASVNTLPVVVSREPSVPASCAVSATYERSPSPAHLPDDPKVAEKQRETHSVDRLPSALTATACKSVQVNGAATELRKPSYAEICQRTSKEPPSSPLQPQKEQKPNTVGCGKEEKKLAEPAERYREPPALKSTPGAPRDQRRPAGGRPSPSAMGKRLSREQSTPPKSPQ

Q: How did the Kd turn out when GUAGAGACUUCCGUCACGCUUGGUAGAGUUUAUUUUUUUGA (ssRNA) [CKB] was run?
A: ~200 nM

Q: Does GUAGAGACUUCCGUCACGCUUGGUAGAGGA (ssRNA) [CKB del] bind?
A: no binding
